Test results taken from patent US6413943 (CELL GENESYS, dated 2002).

Experiments:
Assay in all cases: cell-based or functional assay
CDK4/cyclin D1 complex = CDK4/cyclin D1 complex (UniProt P11802 1-303; P24385 1-295)
CDK2/cyclin E complex = CDK2/cyclin E complex (UniProt P24941 1-298)
CDC2/cyclin B complex = CDC2/cyclin B complex (UniProt P06493 1-297)
CDK2/cyclin A complex = CDK2/cyclin A complex (UniProt P24941 1-298)

Chain of CDC2/cyclin B complex (P06493 whole entry, one chain of several): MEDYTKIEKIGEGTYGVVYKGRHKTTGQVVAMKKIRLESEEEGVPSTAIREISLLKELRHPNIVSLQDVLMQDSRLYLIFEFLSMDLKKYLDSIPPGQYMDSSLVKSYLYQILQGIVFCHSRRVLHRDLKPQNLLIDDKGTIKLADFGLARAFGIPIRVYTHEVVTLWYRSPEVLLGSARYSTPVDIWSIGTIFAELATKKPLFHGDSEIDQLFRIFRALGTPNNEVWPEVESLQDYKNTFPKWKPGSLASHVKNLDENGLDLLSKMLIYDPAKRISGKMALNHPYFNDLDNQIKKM
Chain of CDK4/cyclin D1 complex (P11802 whole entry, chain 1 of 2): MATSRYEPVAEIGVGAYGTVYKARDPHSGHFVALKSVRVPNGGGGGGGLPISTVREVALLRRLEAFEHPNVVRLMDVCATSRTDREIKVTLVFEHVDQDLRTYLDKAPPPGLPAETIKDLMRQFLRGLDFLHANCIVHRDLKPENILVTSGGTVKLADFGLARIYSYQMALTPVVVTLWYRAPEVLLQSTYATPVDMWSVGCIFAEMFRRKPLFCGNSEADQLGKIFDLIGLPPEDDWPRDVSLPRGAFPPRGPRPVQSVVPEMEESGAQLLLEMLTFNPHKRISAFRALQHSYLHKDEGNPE
Chain of CDK4/cyclin D1 complex (P24385 whole entry, chain 2 of 2): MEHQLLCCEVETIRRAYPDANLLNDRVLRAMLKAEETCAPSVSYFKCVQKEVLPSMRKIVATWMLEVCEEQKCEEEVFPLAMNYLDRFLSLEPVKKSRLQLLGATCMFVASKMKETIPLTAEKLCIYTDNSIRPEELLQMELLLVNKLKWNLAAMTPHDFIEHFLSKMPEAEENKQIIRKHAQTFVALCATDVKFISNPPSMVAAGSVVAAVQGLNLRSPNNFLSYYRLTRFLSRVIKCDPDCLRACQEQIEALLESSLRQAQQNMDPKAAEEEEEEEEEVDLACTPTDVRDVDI

IC50, in vitro kinase activity (GST-Rb phosphorylation) (CDK4/cyclin D1 complex): 250 nM | IC50, in vitro kinase activity (GST-Rb phosphorylation) (CDK2/cyclin E complex): > 500 nM | IC50, in vitro kinase activity (histone H1 phosphorylation) (CDC2/cyclin B complex): > 500 nM | IC50, in vitro kinase activity (CDK2/cyclin A complex): > 500 nM
B1: human p16 (other)
chain: MEPAAGSSMEPSADWLATAAARGRVEEVRALLEAGALPNAPNSYGRRPIQVMMMGSARVAELLLLHGAEPNCADPATLTRPVHDAAREGFLDTLVVLHRAGARLDVRDAWGRLPVDLAEELGHRDVARYLRAAAGGTRGSNHARIDAAEGPSDIPD
